Measurements published in patent US20190010205A1 (JCR PHARMACEUTICALS, published 2019).

B1: recombinant human growth hormone binding protein (rhGHBP, BioVision Inc.) (receptor, UniProt P10912 19-264, looked up)
chain: FSGSEATAAILSRAPWSLQSVNPGLKTNSSKEPKFTKCRSPERETFSCHWTDEVHHGTKNLGPIQLFYTRRNTQEWTQEWKECPDYVSAGENSCYFNSSFTSIWIPYCIKLTSNGGTVDEKCFSVDEIVQPDPPIALNWTLLNVSLTGIHADIQVRWEAPRNADIQKGWMVLEYELQYKEVNETKWKMMDPILTTSVPVYSLKVDKEYEVRVRSKQRNSGNYGEFSEVLYVTLPQMSQFTCEEDFY
B2: 20K human growth hormone (ATGen Inc.) (ligand)
chain: FPTIPLSRLFDNAMLRAHRLHQLAFDTYQEFNPQTSLCFSESIPTPSNREETQQKSNLELLRISLLLIQSWLEPVQFLRSVFANSLVYGASDSNVYDLLKDLEEGIQTLMGRLEDGSPRTGQIFKQTYSKFDTNSHNDDALLKNYGLLYCFRKDMDKVETFLRIVQCRSVEGSCGF

Tests used:
Test in all cases: cell-based or functional assay
HSA-20K hGH = HSA-20K hGH (human)
HSA-[linker]-20K hGH = HSA-[linker]-20K hGH (human)
[1] = biological target: T1, human prolactin receptor (hPRLR) expressed on mouse BaF3 cells (BaF3/hPRLR cells) (human, UniProt P16471 25-622)
T1 sequence (looked up): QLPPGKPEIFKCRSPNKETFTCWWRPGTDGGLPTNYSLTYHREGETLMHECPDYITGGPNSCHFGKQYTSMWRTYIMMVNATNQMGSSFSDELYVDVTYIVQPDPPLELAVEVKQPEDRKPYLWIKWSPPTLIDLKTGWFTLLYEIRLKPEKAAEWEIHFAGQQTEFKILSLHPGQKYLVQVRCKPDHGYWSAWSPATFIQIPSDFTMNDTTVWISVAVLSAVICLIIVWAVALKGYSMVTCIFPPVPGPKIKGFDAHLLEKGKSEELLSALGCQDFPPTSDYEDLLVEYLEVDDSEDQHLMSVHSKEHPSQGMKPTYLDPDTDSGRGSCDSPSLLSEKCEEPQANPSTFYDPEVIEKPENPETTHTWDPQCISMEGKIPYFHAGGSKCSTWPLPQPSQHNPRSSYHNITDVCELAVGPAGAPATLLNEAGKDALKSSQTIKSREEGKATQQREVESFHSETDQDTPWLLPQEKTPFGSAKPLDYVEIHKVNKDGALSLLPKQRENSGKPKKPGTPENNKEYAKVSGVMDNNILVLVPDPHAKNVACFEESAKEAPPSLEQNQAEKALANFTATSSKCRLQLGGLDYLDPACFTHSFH

[2] = biological target: T2, human GH receptor (hGHR) expressed on mouse BaF3 cells (BaF3/hGHR cells) (human, UniProt P10912 19-638)
T2 sequence (looked up): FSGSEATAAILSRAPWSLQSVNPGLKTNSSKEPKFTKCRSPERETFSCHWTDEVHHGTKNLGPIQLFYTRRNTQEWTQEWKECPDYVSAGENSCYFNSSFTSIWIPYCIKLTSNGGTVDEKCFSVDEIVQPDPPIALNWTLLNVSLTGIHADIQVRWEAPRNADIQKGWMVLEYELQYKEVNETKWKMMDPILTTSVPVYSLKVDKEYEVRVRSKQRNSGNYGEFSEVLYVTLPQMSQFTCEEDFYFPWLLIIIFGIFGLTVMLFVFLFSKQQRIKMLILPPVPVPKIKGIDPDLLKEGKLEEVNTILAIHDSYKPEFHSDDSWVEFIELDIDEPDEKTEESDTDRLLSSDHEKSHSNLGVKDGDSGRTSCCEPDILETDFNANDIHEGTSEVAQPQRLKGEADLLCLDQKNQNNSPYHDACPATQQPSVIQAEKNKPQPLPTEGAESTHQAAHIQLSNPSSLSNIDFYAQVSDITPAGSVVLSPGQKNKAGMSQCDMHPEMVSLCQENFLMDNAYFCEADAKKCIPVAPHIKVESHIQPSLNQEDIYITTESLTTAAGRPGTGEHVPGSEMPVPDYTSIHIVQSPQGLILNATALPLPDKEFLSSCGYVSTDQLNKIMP

| Binder | IC50 of hGHBP against cell growth activity on BaF3/hGHR cells (by extrapolation) (HSA-20K hGH) | IC50 of hGHBP against cell growth activity on BaF3/hGHR cells (by extrapolation) (HSA-[linker]-20K hGH) | EC50 (row printed as ED50), prolactin-like activity using BaF3/hPRLR cells [1] | EC50 (row printed as ED50), cell growth activity using BaF3/hGHR cells [2] |
| --- | --- | --- | --- | --- |
| B1 | 250 to 350 nM | 250 to 350 nM | – | – |
| B2 | – | – | 0.27 nM | 0.00084 nM |
